The values that follow come from article PMC6203815 (Nature Communications, 2018).

First the molecules themselves.
B1: HC2-LC2 (antibody, V domains shown)
VH: EVQLVESGGGLVQPGGSLRLSCAASGFTFNNYWMSWVRQAPGKGLEWVASISNIGGTIYYPDSVKGRFTISRDSAKNSLYLQMNSLRAEDTAVYYCTRDLRMSDYFDYWGQGTLVTVSS
VL: QFVLTQPHSVSESPGKTVTISCKRSTGNIGSNYVSWYQQRPGSSPTTVIYRDDQRPSGVPDRFSGSIDRSSNSASLTISGLKTEDEADYYCHSYSTGMYIFGGGTKLTVL
B2: HC1-LC1 (antibody, V domains shown)
VH: EVQLVESGGGLVQPGGSLRLSCAASGFTFNNYWMSWVRQAPGKGLEWVASISNIGGTIYYPDSVKGRFTISRDNAKNSLYLQMNSLRAEDTAVYYCTRDLRMSDYFDYWGQGTLVTVSS
VL: NFMLTQPHSVSESPGKTVTISCTRSTGNIGSNYVSWYQQRPGSSPTTVIYRDDQRPSGVPDRFSGSIDRSSNSASLTISGLKTEDEADYYCHSYSTGMYIFGGGTKLTVL
B3: HC2-LC3 (antibody, V domains shown)
VH: EVQLVESGGGLVQPGGSLRLSCAASGFTFNNYWMSWVRQAPGKGLEWVASISNIGGTIYYPDSVKGRFTISRDSAKNSLYLQMNSLRAEDTAVYYCTRDLRMSDYFDYWGQGTLVTVSS
VL: QFMLTQPHSVSESPGKTVTISCTRSTGNIGSNYVSWYQQRPGSAPTTVIYRDDQRPSGVPDRFSGSIDRSSNSASLTISRLKTEDEADYYCHSYSTGMYIFGGGTKLTVL
B4: HC1-LC3 (antibody, V domains shown)
VH: EVQLVESGGGLVQPGGSLRLSCAASGFTFNNYWMSWVRQAPGKGLEWVASISNIGGTIYYPDSVKGRFTISRDNAKNSLYLQMNSLRAEDTAVYYCTRDLRMSDYFDYWGQGTLVTVSS
VL: QFMLTQPHSVSESPGKTVTISCTRSTGNIGSNYVSWYQQRPGSAPTTVIYRDDQRPSGVPDRFSGSIDRSSNSASLTISRLKTEDEADYYCHSYSTGMYIFGGGTKLTVL
B5: HC1-LC2 (antibody, V domains shown)
VH: EVQLVESGGGLVQPGGSLRLSCAASGFTFNNYWMSWVRQAPGKGLEWVASISNIGGTIYYPDSVKGRFTISRDNAKNSLYLQMNSLRAEDTAVYYCTRDLRMSDYFDYWGQGTLVTVSS
VL: QFVLTQPHSVSESPGKTVTISCKRSTGNIGSNYVSWYQQRPGSSPTTVIYRDDQRPSGVPDRFSGSIDRSSNSASLTISGLKTEDEADYYCHSYSTGMYIFGGGTKLTVL

This experiment concerns the target Pfs48/45 6C domain (NF54) (Plasmodium falciparum NF54, UniProt V5NSK3).
Take B1: the binding result is listed as “binds”.
Take B2: the binding result is on record as “binds”.
For the molecule B3, the binding result is “binds”.
On to B4, for which the binding result is on record as “binds”.
Turning to B5, the binding result is “binds”.
